From patent publication US20240317882A1 (WUHAN BIO RAID BIOTECH, published 2024)

T1: extracellular domain of CD99 (UniProt P14209 23-122, limits assumed)
T1 construct: extracellular domain; also called antigen CD99; purified recombinant extracellular domain of CD99
T1 sequence (looked up): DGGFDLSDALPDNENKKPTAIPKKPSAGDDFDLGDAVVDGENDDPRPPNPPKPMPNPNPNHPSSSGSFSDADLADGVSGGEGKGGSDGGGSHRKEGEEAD


Target: T1, extracellular domain of CD99
Test: surface plasmon resonance (BiacoreX), soluble scFv against extracellular domain of CD99
Description: The nucleotide sequences shown in SEQ ID NO: 2, SEQ ID NO: 4, SEQ ID NO: 6, SEQ ID NO: 8 and SEQ ID NO: 10 were artificially synthesized with the cleavage site Nde I and Xho I each added to either terminal. The synthetic nucleotide sequences were subjected to dual-enzyme digestion, and then ligated to a cloning vector PMD-19T subjected to the same digestion process as above. The ligated product was transformed into the competent cells, and then the positive clones were screened and sequenced. The plasmid was extracted from the positive clone with a correct sequence, and then subjected to dual-enzyme digestion by using Nde I and Xho I. Meanwhile, an expression vector PET-28b was also subjected to the same dual-enzyme digestion as above. The nucleotide fragment was ligated with the vector fragment, with which E. coli was transformed. The positive clones were screened and sequenced. The positive clone with correct sequence was selected for extracting the plasmid.

Binder	Kd [nM]
C4 anti-CD99 scFv (soluble) (scFv, Prior-art scFv; Expressed as soluble scFv in E. coli BL21 (DE3) from PET-28b) scFv: EVQLQQSGAELVKPGASVKLSCTASGFDIKDTYIHWVKQRPEQGLEWIGRIDPANGDTRYDPEFQGKASLTADTSSNTAYLQFSNLTSEDTAVYYCARRGGLSWGQGTTLTVSSGGGGSGGGGSGGGGSDIQMTQSPASLSASVGETVTITCRASGNIHNYLAWYQQKQGKSPQLLVYNAKTLADGVPSRFSGSGSGTQYSLKINSLQPEDFGSYYCQHFWSTPWTFGGGTKLEIK	600
C6 anti-CD99 scFv (soluble) (scFv, Selected from a CD99 phage antibody library; Expressed as soluble scFv in E. coli BL21 (DE3) from PET-28b (Nde I / Xho I) and purified) scFv: EVQLQQSGAELVKPGASVKLSCTASGFNIKDTYIHWVKRRPEQGLEWIGRIDPANGNTKYDPKFQGKATITADTSSNTAYLQLSSLTSEDTAVYYCARRGLDYWGQGTLVTVSAGGGGSGGGGSGGGGSDVVMTQTPLTLSVTIGQPASISCKSSQSLLDGDGKTYLNWLLQRPGQSPKRLIYLVSKLDSGVPDRFTGSGSGTDFTLKISRVEAEDLGVYYCWQGTHFPRTFGGGTKLEIK	450
C2 anti-CD99 scFv (soluble) (scFv, Prior-art scFv; Expressed as soluble scFv in E. coli BL21 (DE3) from PET-28b; also called C2 in CN 110590960 A) scFv: EVQLQQSGAELVKPGASVKLSCTASGFNIKDTYIHWVKRRPEQGLEWIGRIDPANGNTKYDPKFQGKATITADTSSNTAYLQLSSLTSEDTAVYYCARRGGVDWGQGTLVTVSAGGGGSGGGGSGGGGSDVVMTQTPLTLSVTIGQPASISCKSSQSLLDGDGKTYLNWLLQRPGQSPKRLIYLVSKLDSGVPDRFTGSGSGTDFTLKISRVEAEDLGVYYCWQGTHFPRTFGGGTKLEIK	480
C3 anti-CD99 scFv (soluble) (scFv, Prior-art scFv; Expressed as soluble scFv in E. coli BL21 (DE3) from PET-28b; also called C3 in CN 110590960 A) scFv: QVQLVQSGAEVKKPGASVKVSCKASGFNIKDTYIHWVRQAPGQGLEWMGRIDPANGNTKYDPKFQGRVTMTRDTSISTAYMELSRLRSDDTAVYYCARRGGVDWGQGTLVTVSSGGGGSGGGGSGGGGSDIVMTQTPLSLSVTPGQPASISCKSSQSLLDGDGKTYLNWLLQKPGQSPQRLIYLVSKLDSGVPDRFSGSGSGTDFTLKISRVEAEDVGVYYCWQGTHFPRTFGQGTKLEIK	510
